Paper doi:10.1101/2021.09.20.461090

Target: extended E34 TSP (E34 phage tailspike protein with the N-terminal 43 amino acid fusion peptide) (E34 phage)
Test: SDS-PAGE of unheated against unfolded samples

Substance: extended E34 TSP (E34 phage tailspike protein with the N-terminal 43 amino acid fusion peptide) (natural protein)
- stoichiometry N: 3
